Test results taken from US10940200.

What was measured:
[1] = molecular target: recombinant TGF-β1 (rat TGFβ1 sequence expressed in HEK cells, heat-activated) (rat) (UniProt P17246); assay: cell-based or functional assay
[2] = molecular target: TGF-β present in IFN-β-treated mouse 2D2-FIG splenocyte cultures (endogenous) (mouse); assay: cell-based or functional assay

Chain of UniProt P17246 (P17246 279-390 limits assumed): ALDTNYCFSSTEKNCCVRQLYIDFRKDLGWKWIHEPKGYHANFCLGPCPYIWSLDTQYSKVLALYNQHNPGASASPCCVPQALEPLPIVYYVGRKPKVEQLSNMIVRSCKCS

B1: 1D11.16.8 anti-mouse-TGF-β1/2/3 mouse IgG1 mAb (antibody, from another filing, V domains shown)
VH: QVQLQQSGPELVRPGASVKLSCKASGYIFITYWMNWVKQRPGQGLEWIGQIFPASGSTNYNEMFEGKATLTVDTSSSTAYMQLSSLTSEDSAVYYCARGDGNYALDAMDYWGQGTSVTVSS
VL: DIVLTQSPASLAVSLGQRATISCRASESVDSYGNSFMHWYQQKSGQPPKLLIYLASNLESGVPARFSGSGSRTDFTLTIDPVEADDAATYYCQQNNEDPLTFGAGTKLEIK
Question: With B1 as the binder, how does the inhibition of TGF-β-induced FOXP3+ Treg induction (GFP) in MOG35-55-stimulated 2D2-FIG splenocytes, 7 days [1] read?
Answer: 1 µg/mL

Question: And the inhibition of IFN-β-induced FOXP3+ Treg induction (GFP) in MOG35-55-stimulated 2D2-FIG splenocytes, 7 days [2]?
Answer: 1 µg/mL
